Assay [1] has as its target EnvZc C277Y (S. Typhimurium) (UniProt P08982). Put plainly: SEC; gel filtration profiles of EnvZc, EnvZc C277Y, OmpR, (OmpR + EnvZc) and (OmpR + EnvZc C277Y); Superose 12 10/300 GL for EnvZc, AKTA FPLC, 0.5 ml/min, 'suitable buffers'; fractions analysed by SDS-PAGE. (In general: In gel filtration, larger molecules generally elute earlier.)
Another assay addresses OmpR (UniProt P0AA16). In words: SEC; oligomeric state of OmpR alone under acidic conditions; Hiload 16/60 Superdex 75 pg for OmpR; OmpR buffer exchanged into 20 mM Tris, 200 mM NaCl.
In the next assay the target is T1, EnvZc ( (S. Typhimurium or E. coli …, UniProt P08982 1-450)).
T1 construct: EnvZ sensor histidine kinase, cytoplasmic domain (EnvZc); also called wild-type EnvZc; cytoplasmic domain of EnvZ
T1 sequence: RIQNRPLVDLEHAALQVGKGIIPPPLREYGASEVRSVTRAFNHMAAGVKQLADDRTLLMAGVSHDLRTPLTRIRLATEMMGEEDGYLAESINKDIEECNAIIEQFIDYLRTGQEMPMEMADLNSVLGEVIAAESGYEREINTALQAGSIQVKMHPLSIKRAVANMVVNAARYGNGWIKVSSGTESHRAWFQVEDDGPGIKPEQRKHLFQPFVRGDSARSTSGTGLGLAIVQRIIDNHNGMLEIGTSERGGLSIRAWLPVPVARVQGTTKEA
Put plainly: SEC; gel filtration profiles of EnvZc, EnvZc C277Y, OmpR, (OmpR + EnvZc) and (OmpR + EnvZc C277Y); Superose 12 10/300 GL for EnvZc, AKTA FPLC, 0.5 ml/min, 'suitable buffers'; fractions analysed by SDS-PAGE. As to conditions: both partners purified.

Data on three molecules can be found in paper PMC5686162, “Non-canonical activation of OmpR drives acid and osmotic stress responses in single bacterial cells” (Nature Communications, 2017).

With “EnvZc C277Y (from UniProt P08982 1-450) (domain or fragment)”, the stoichiometry N (commonly the number of molecules, sites or subunits per partner or assembly) in assay [1] was found to be 2.
On to “OmpR (from UniProt P0AA16 1-239) (natural protein)”, for which the stoichiometry N with OmpR was 2.

B1: OmpR (natural protein)
chain: MQENYKILVVDDDMRLRALLERYLTEQGFQVRSVANAEQMDRLLTRESFHLMVLDLMLPGEDGLSICRRLRSQSNPMPIIMVTAKGEEVDRIVGLEIGADDYIPKPFNPRELLARIRAVLRRQANELPGAPSQEEAVIAFGKFKLNLGTREMFREDEPMPLTSGEFAVLKALVSHPREPLSRDKLMNLARGREYSAMERSIDVQISRLRRMVEEDPAHPRYIQTVWGLGYVFVPDGSKA
notes: OmpR, response regulator of the EnvZ-OmpR two-component system; The unphosphorylated protein was used in gel filtration; also called His-OmpR; source: E. coli BL21 (DE3), from pET15b, purified
In the case of B1, the “stoichiometry N” value with EnvZc is 2 OmpR molecules per EnvZc dimer.
